Read-outs that look alike come from different tables or passages of the source. Numbered stars: 1 amine (or outer) side, 2 acyl side, 3 side chain; on linkers, the order of the positions; unused ones are H or OH. Square brackets hold non-standard residues; d marks the D form. Ends that are not written are not given here. * marks the point of attachment. PEG6‑diacid = 4,7,10,13,16,19,22-Heptaoxapentacosane-1,25-dioic acid, O=C(O)CCOCCOCCOCCOCCOCCOCCOCCC(=O)*; PEG8‑diacid = PEG8-diacid linker: 4,7,10,13,16,19,22,25,28-nonaoxahentriacontane-1,31-dioic acid; CO(CH2CH2O)13CH2CH2CO = O=C(CCOCCOCCOCCOCCOCCOCCOCCOCCOCCOCCOCCOCCOCCC(=O)[*:2])[*:1]; 5FAM = O=C1OC2(c3ccc(O)cc3Oc3cc(O)ccc32)c2ccc(C(=O)*)cc21; NMeE = CN[C@@H](CCC(=O)O)C(=O)O

For assay [1], the target named is T1, HIS-PDZ2 protein (PSD-95 PDZ2, residues 155-249, with tag …) (human, UniProt P78352 155-249). Nature of the assay: FP competition, fluorescent NR2B probe.
For assay [2], the target named is T2, HIS-PDZ1 protein (PSD-95 PDZ1, residues 61-151, with tag …) (human, UniProt P78352 61-151).
T2 construct: expressed in E. coli
The experiment in a line: FP competition, fluorescent NR2B probe.

The target of assay [3] is T3, HIS-PDZ3 protein (PSD-95 PDZ3, residues 309-401, with tag …) (human, UniProt P78352 309-401). Nature of the assay: FP competition, fluorescent CRIPT probe.
The target in assay [4] is T1, HIS-PDZ2 protein (PSD-95 PDZ2, residues …). Nature of the assay: FP competition, fluorescent NR2B probe. The source holds these as a separate data set.
The target in assay [5] is T2, HIS-PDZ1 protein (PSD-95 PDZ1, residues …). Nature of the assay: FP competition, fluorescent NR2B probe. This is another data set of the same source.
Assay [6] concerns the target T1, HIS-PDZ2 protein (PSD-95 PDZ2, residues …). The experiment in a line: FP competition assay (Ki), fluorescent NR2B probe displaced from the PDZ domain; bar chart.
Assay [7] concerns the target T2, HIS-PDZ1 protein (PSD-95 PDZ1, residues …). The description is as above.
Assay [8] addresses T1, HIS-PDZ2 protein (PSD-95 PDZ2, residues …). Nature of the assay: ITC.
The target in assay [9] is T4, HIS-PDZ1-2 protein (PSD-95 PDZ1-2 tandem, residues 61-249, with tag …) (human, UniProt P78352 61-249). Nature of the assay: ITC.
In assay [10] the target is T1, HIS-PDZ2 protein (PSD-95 PDZ2, residues …). Nature of the assay: FP competition, fluorescent NR2B probe. This is another data set of the same source.
Assay [11] deals with T4, HIS-PDZ1-2 protein (PSD-95 PDZ1-2 …). The experiment in a line: FP competition, fluorescent NR2B probe; exact Ki not calculable.
The target in assay [12] is T1, HIS-PDZ2 protein (PSD-95 PDZ2, residues …). Nature of the assay: FP competition assay (Ki), fluorescent NR2B probe displaced from the PDZ domain; bar chart. This is another data set of the same source.
Assay [13] addresses T2, HIS-PDZ1 protein (PSD-95 PDZ1, residues …). Described as above. The source holds these as a separate data set.
The target of assay [14] is T3, HIS-PDZ3 protein (PSD-95 PDZ3, residues …). Nature of the assay: FP saturation binding.
For assay [15] the target is unchanged. Nature of the assay: FP competition: fluorescent CRIPT probe (50 nM) on PDZ3 (5 µM).
The target in assay [16] is T1, HIS-PDZ2 protein (PSD-95 PDZ2, residues …). The experiment in a line: FP competition, fluorescent NR2B probe. The source holds these as a separate data set.
Assay [17] concerns the target T4, HIS-PDZ1-2 protein (PSD-95 PDZ1-2 …). Nature of the assay: FP competition, fluorescent NR2B probe.
Assay [18] deals with T2, HIS-PDZ1 protein (PSD-95 PDZ1, residues …). Nature of the assay: FP competition, fluorescent NR2B probe. This is another data set of the same source.
The target of assay [19] is T4, HIS-PDZ1-2 protein (PSD-95 PDZ1-2 …). The experiment in a line: FP competition: displaces fluorescent NR2B probe (50 nM) from PDZ1-2 (3 µM).
In assay [20] the target is T2, HIS-PDZ1 protein (PSD-95 PDZ1, residues …). The experiment in a line: FP competition: displaces fluorescent NR2B probe (50 nM) from PDZ1 (20 µM).
Assay [21] concerns the target T1, HIS-PDZ2 protein (PSD-95 PDZ2, residues …). The experiment in a line: FP competition: displaces fluorescent NR2B probe (50 nM) from PDZ2 (3 µM).
The target of assay [22] is T4, HIS-PDZ1-2 protein (PSD-95 PDZ1-2 …). The experiment in a line: FP competition: displaces fluorescent NR2B probe (50 nM) from PDZ1-2 (3 µM). This is another data set of the same source.
In assay [23] the target is T5, HIS-PDZ1-2 with tryptophan instead of isoleucine (PDZ1-2 I195W) (human, UniProt P78352 61-249).
T5 construct: Used in the stopped-flow fluorimetry of ligand 74; also called PDZ1-21195W (so in the source)
The experiment in a line: stopped-flow fluorimetry, Trp fluorescence; stopped-flow fluorescence titration, not FP.

Assay [24] deals with T4, HIS-PDZ1-2 protein (PSD-95 PDZ1-2 …). Nature of the assay: FP competition, fluorescent NR2B probe; exact Ki not calculable. This is another data set of the same source.
Assay [25] has as its target T1, HIS-PDZ2 protein (PSD-95 PDZ2, residues …). The experiment in a line: FP competition, alanine scan.
In assay [26] the target is T4, HIS-PDZ1-2 protein (PSD-95 PDZ1-2 …). The experiment in a line: FP competition, fluorescent NR2B probe. The source holds these as a separate data set.

B1: Compound 18 (ESDV with N-methylated Glu at P^-3) (peptide)
peptide: [NMeE]SDV
As for B1, the results for the “fold higher Ki compared to peptide 1” value in assay [1] and in assay [2] were 3.7 fold and 1.3 fold, respectively.

B2: Compound 22 (ESDV with Asp P^-1 replaced by Gln) (peptide)
peptide: ESQV
As for B2, the binding result in assay [1] and in [2] was “binds” each time.

B3: EMeTAV (40) (peptide)
peptide: [NMeE]TAV
notes: also called N-Methyl-ETAV (40)
Usually Ki stands for a measure of affinity in units of concentration, obtained from inhibition or displacement. For the molecule B3, the Ki in assay [3] was around 79 µM; in assay [4] it was 8.9 µM; in [5], 11 µM.

B4: Compound 24 (ESDV with Asp P^-1 replaced by Asn) (peptide)
peptide: ESNV
In the case of B4, the binding result in assay [1] and in [2] was “binds” each time.

B5: Compound 38 (EMeTXV with X = Asn) (peptide)
peptide: [NMeE]TNV
Consider B5, for which the binding result in assay [6] and in [7] was “binds” throughout.

B6: ETQV (32) (peptide)
peptide: ETQV
notes: number 32 only on the sheet
For the molecule B6, the binding result in assay [6] and in assay [7] was “binds” each time.

B7: Compound 23 (ESDV with Asp P^-1 replaced by Glu) (peptide)
peptide: ESEV
For the molecule B7, the binding result in [1] and in assay [2] was “binds” each time.

B8: ETNV (31) (peptide)
peptide: ETNV
notes: number 31 only on the sheet
In the case of B8, the binding result in assay [6] and in [7] was “binds” in each case.

B9: (IESDV)2PEG4 (78) (peptide)
peptide: {PEG4‑diacid}-IESDV
modifications: also: dimer: two peptides N-terminally joined via PEG4-diacid
notes: Dimeric ligand
One may read the Kd as a measure of binding affinity in units of concentration. Read a high Kd as weaker binding. B9: the figures for the Kd in assay [8] and in [9] were 3.3 µM and 0.032 µM, respectively. For the same molecule, the Ki in [10] was 2.7 µM; in assay [11], around 0.1 µM.

B10: SSIESDV (5) (peptide)
peptide: SSIESDV
notes: N-terminal truncation of the NR2B peptide (1)
B10: the binding result in assay [12] and in [13] was “binds” each time.

B11: (IESDV)2PEG6 (77) (peptide)
peptide: {PEG6‑diacid}-IESDV
modifications: also: dimer: two peptides N-terminally joined via PEG6-diacid
notes: Dimeric ligand
For B11, binding in assay [9] was characterised by a dissociation constant (Kd) of 0.039 µM. For the same molecule, the inhibition constant (Ki) in assay [10] is 2 µM; in [11], around 0.1 µM.

B12: 5-FAM/Cy5-CRIPT (peptide)
peptide: 5FAM-KSGLDTKNYKQTSV
modifications: also: entry also covers Cy5-CRIPT: CSG linker, Cy5-maleimide on Cys
notes: also called 5-FAM-CRIPT
In assay [14], B12 yielded a Kd of 3.5 µM.

B13: (GE[N-Cyclohexylethyl]TDV)2PEG12 (75) (peptide)
peptide: {CO(CH2CH2O)13CH2CH2CO}-GETDV-OH
modifications: not fully specified (residue 2); printed as (GE[N-Cyclohexylethyl]TDV)2PEG12 (75); also: dimer: two peptides N-terminally joined via PEG12-diacid
notes: Dimeric ligand; also called (GE[R]TDV)2-PEG12 (75)
As to B13, the binding result in assay [15] is reported as “no binding (tested: log(Conc/M) about -3.6)”. In addition, the Ki stood at 55 µM in assay [16], 5.5 µM in assay [17] and 83 µM in [18].

B14: IESDV (7) (peptide)
peptide: IESDV
notes: also called pentapeptide (7)
In assay [8], B14 returned a Kd of 2.6 µM. For the same molecule, the “IC50 (read off the curve)” value in assay [19] is around 9 µM; in assay [20] it was around 50 µM; in [21], around 9 µM; in assay [22], around 10 µM. The same molecule gave a Ki in [10] of 3.1 µM.

B15: SIESDV (6) (peptide)
peptide: SIESDV
notes: as for B10
On to B15, for which the binding result in assay [12] and in assay [13] was “binds” each time.

B16: (IESDV)2PEG12 (74) (peptide)
peptide: {PEG12‑diacid}-IESDV
modifications: also: dimer: two peptides N-terminally joined via PEG12-diacid
notes: Dimeric ligand
Take B16: the dissociation constant Kd in [9] worked out at 0.09 µM. Besides, the binding result in assay [15] is on record as “no binding (tested: log(Conc/M) about -3.3)”. In addition, the inhibition constant (Ki) in assay [23] was around 0.1 µM; in assay [24], around 0.1 µM; in assay [10] it was 3.1 µM; in assay [11], around 0.1 µM; in [16], 2.8 µM.

B17: Compound 13 (IESDV with Asp P^-1 replaced by Ala) (peptide)
peptide: IESAV
For the molecule B17, the “fold higher Ki than CRIPT” value in assay [3] is above 30 fold.

B18: Compound 12 (IESDV with Ser P^-2 replaced by Ala) (peptide)
peptide: IEADV
For B18, the “fold increase in Ki on Ala substitution of Ser (P^-2) in pentapeptide (7)” value in assay [25] is 7 fold.

B19: (IESDV)2PEG8 (76) (peptide)
peptide: {PEG8‑diacid}-IESDV
modifications: also: dimer: two peptides N-terminally joined via PEG8-diacid
notes: Dimeric ligand
Consider B19, for which the Kd in [9] stood at 0.12 µM. For the same molecule, the figures for the inhibition constant Ki in [10] and in assay [11] were 2.6 µM and around 0.1 µM, respectively.

B20: Compound 81 (IESDV dimerized with PEG0-diacid) (peptide)
peptide: {PEG0‑diacid}-IESDV
modifications: also: dimer: two peptides N-terminally joined via PEG0-diacid
notes: Dimeric ligand
Take B20: the Kd in [9] was determined as 1.1 µM. Besides, in assay [19], the “IC50 (read off the curve)” value is around 5 µM. Moreover, the Ki is 3.1 µM in assay [10] and 1.5 µM in [26].

B21: truncated CRIPT pentapeptide (KQTSV) (peptide)
peptide: KQTSV
For B21, the “fold reduction in Ki (so in the source) compared with CRIPT peptide (2)” value in [3] is 14 fold.
